# Measurements: paper PMC4003281
# Target: DegP^S210A/R207P (Escherichia coli) (UniProt P0C0V0)
# Assay: fluorescence polarisation
substance,measurement,value
"^flC18–58, fluorescent peptide derived from residues 18–58 of lysozyme",Kd,1.7 µM
